These sequences were tested on K4 kissing-loop RNA reporter (assay: apparent KD of K4 kissing-loop reporter; higher = weaker reporter binding). Details: Eterna round: R107; input ligand: arginine 13.2 mM.
Experimental: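 RNA-MaP round R107: designed RNA switches with theophylline, tryptophan, arginine or FMN aptamers are transcribed on-chip within common flanks. They are titrated with a labelled K4 kissing-loop RNA reporter in RNA-MaP buffer (100 mM Tris pH 7.5, 80 mM KCl, 4 mM MgCl2), without ligand or with the indicated ligand. Median apparent KD per design.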
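Further: bound reporter read as fluorescence of individual clusters on recovered sequencing chips by microscopy, with normalized cluster intensities fitted with a binding model.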

Row | Sequence | apparent KD of K4 kissing-loop reporter
1 | UUAAUAAUUCAAGGAUAUGUUUUCUAUUUCGAGUGAUGUUCGGUAUUAAUAAAUUUAAUAGAUUAUACAGAAGGUGAUGGAUAGU [Cynwulf-mod#5] | 101 nM
2 | AAGUCAUAUAGAAGGAGCGUGUUUUAUAAUUUAUUUUCAUGAUCGAGUGAUGUUCGAUAUACACAGGUAGGUCGCUGUAUAAUAA [hbob_SS_Arginine_B_2t140] | 144 nM
3 | CUACAUGCACAGGAGUGAUGUUUAUGGGCUCGAGGACCGGUACGGCCGCCACUCGUUAUGGCACGCAGUAGAUAUAGGCGAGGAA [theeternabot_sameState_KL_Trp_A_41] | 381 nM
4 | AGUGUGCAAAAGCACACUCAGCACAAGGACAAGGAUAUCUACUAAUAGAGAAGGUGUCCUUUCCUUAGUGAUGUUAAGGAGCUGA [Omei KL FMN A SS D v1] | 526 nM
5 | UGUACCGAGUCAGGAUAUGGCGUCGAAAGACGAAUGCUAGUGAUGUUAGGGAUCUGCGAAAGCAGUCUAGAAGGGACUUGGUACU [FmnBS 26 G36+U68] | 361 nM
6 | GAUCUGAACGAAAGUUCGGAUCAGUCCGAUACCAGUAUGGAUUCAUACCCUUGGCAGCGGAAAUCUGCUAUGGAGUGAUGUUCCA [Theophylline A K4 14] | 328 nM
7 | AAGGGCUAGGCGGCCGCCACUGGUCGUGUACACAUACAGACCAGUGAUGUUGGUAUUGUAUGCGACAGGACCGGGCCUAGCCCAA [Exclusion - Tryptophan B (Freestyle 29)] | 230 nM
8 | AGACUACUGACAGGAUAUAACAUACUAGCUCGUAUACCAAAGGUAUACGAGCACCUUCUAGUGAUGUUAGAAGGGUCGGUAGUCA [Omei KL FMN B Exc B v2] | 264 nM
9 | CCGAUACAUUAUUCUACGGCCGAGAGCGAUACCAGCCAAAUUUAUGGCCCUUGGCAGCGCAGAUGCAGUGAUGUUGCAUACAUAC [Same State Theophylline A GF 18] | 158 nM
10 | AAGCGUGUGGCGGCCGCCACUAGUCUCCAGUGAUGUUGGAGAUAUCACGUAAGUGAUAUCCGACAUAGGACCGGGCCAUAUGGAA [Same State - Tryptophan B (Freestyle 22)] | 299 nM
11 | CCAUCGCUAUUCGAUACCAGUCAGGAGGUCUUUGGCCUCCUAUUGGAGUGAUGUUCCAUAGACCCUUGGCAGCGAAUAGUGAUGG [Theophylline B K4 15] | 255 nM
12 | GGAUAGGAUAGAGGAUAUGGUUUAUGCAGAAAUAACUUAUUGUGUAAAUCCAUAGGGAGUGAUGUUCCAGAAGGCUGUCCUAUCG [MatMod 15 - Jieux - Exclusion - FMN B] | 187 nM
13 | CUUUUACAGUCGGCCGCCACUGACAGCACUUCAAAGACAGUAUAAGGGUAGUGAUGUUACUUUAUCAGGACCGGGACUACCUAAC [theeternabot_sameState_KL_Trp_B_3] | 121 nM
14 | GUACGCUCUCGAGUGAUGUUCGAUAAUCGCGAGGAUAUCGCUUUUGCGAGAAGGCGCGGAAUGAGGAAACUCGUUCUGAGUGUAC [FMN A 24] | 390 nM
15 | UUAUAUAAGGGAAGGAGCGCGUGGGCGCAGUGAUGUUGCGCCCGACAUCACUUCAACUUAACGCAGGUAGGUCGCCCUUUUAAUA [Arginine B (Excl) V4] | 194 nM
16 | CUCGAGUGAUGUUCGAUUAUGUAUACAGAUACCAGUGAAUUUUAACACCCUUGGCAGCUGGUAGAAUCAUUGUAAUUUUAACUAG [JR_ExcTheophyA_Sub001] | 260 nM
17 | GCAGUGAUGUUGCGCGAGUACGGUAGAGUACGAGGACCGGUACGGCCGCCACUCGUACGGAACUGGCUAAUUUAUGGAAUGGUGA [III] | 227 nM
18 | AGUGAAGUUAGUGAUGUGUGAGUUUGGGAAGGAGCGCCGAGGAAGGCAGGUAGGUCGCCCAGUGAUGUUGGUGUAAGGAUGAGAG [whbob_Ex_Arginine_A_2t123] | 332 nM
19 | GAACGAGUGAUGUUCGUUGGCAUGCAUUCCGAGGAUAUGGGAUUAGCCAGAAGGCGGAAUCAGUCUUCGAGUGAUGUUCGAAGAU [Same State FMN A GF 12] | 104 nM
20 | UGUCUUUUUUUGAUGUUUUUUGUAUAAUGGCAGGAUAUCGUAGAGGCGAGAAGGGCUUUUAUGCGUUAUGAGUGAUGUUUGUAGG [vevvmullin] | 240 nM
21 | AGACUACCACACUGUCAAUAGACAGUGAACUAGGAUAUGCUGAUAAGCAGAAGGAGUGAUGUUCCGAGGUAGUCAAUAAAAUAAU [FmnAX 13 G66] | 246 nM
22 | CACUUACGUAGUGAUGUUACGAUCUCUGAUACCAGACAACUCUAAGUCCCUUGGCAGCAGUCAUUUUGCUUAGUAUUUACUCAAA [JR_ExcTheophyA_Sub016] | 650 nM
23 | CCACCUCCAGAAGGAUAUAGUGUAUCAGAUUCACUCGAGUGCCUUAAACUAAGGAGUGAUGUUCCGCUAGAAGGUCUCGUAGGCA [theeternabot_exclusion_KL_FMN_B_45] | 145 nM
24 | UGACGUUUGGGAAGGAGCGGAAUGUAAUACGGAACGCGUGGAGAUGCAGUGAUGUUGCAGAUCCAGGUAGGUCGCCCAAGGGACG [Zainat] | 72 nM
25 | UAAUUUAUGUCUUUAAUUUUAUUAUCAGAUACCAGUGAUUUAUGACACCCUUGGCAGCUGUAUUGAGUGAUGUUCUUAUAUUAAA [JR_Nu_ExcTheophyA_Sub023] | 111 nM
26 | UUAAAAUAUAUAAAUAAUAAGGGAAUUGAUACCAGACAGAAUUCUGUCCCUUGGCAGCAGUGAUGUUGUUGCAAUUUAAAUAAUU [AK1 Exc Theophylline A] | 148 nM

— the supplement of paper PMC9170038
